Assay results: article PMC10397247

How the values were obtained:
4H1854-AA = molecular target: T1, 4H1854-AA; experiment: two-hybrid library CCmax; settings: mean of both orientations;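 also: natural log of median RNA to DNA barcode read ratio; higher means stronger binding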
T1 chain: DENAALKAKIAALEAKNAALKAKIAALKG

4H3121-AA = molecular target: T2, 4H3121-AA; experiment: two-hybrid library CCmax; settings: mean of both orientations;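 also: natural log of median RNA to DNA barcode read ratio; higher means stronger binding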
T2 chain: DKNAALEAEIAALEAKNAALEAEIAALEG

4H428-AA = molecular target: T3, 4H428-AA; experiment: two-hybrid library CCmax; settings: mean of both orientations;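 also: natural log of median RNA to DNA barcode read ratio; higher means stronger binding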
T3 chain: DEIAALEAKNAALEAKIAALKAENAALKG

4H2948-AA = molecular target: T4, 4H2948-AA; experiment: two-hybrid library CCmax; settings: mean of both orientations;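 also: natural log of median RNA to DNA barcode read ratio; higher means stronger binding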
T4 chain: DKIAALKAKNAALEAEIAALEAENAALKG

4H497-AA = molecular target: T5, 4H497-AA; experiment: two-hybrid library CCmax; settings: mean of both orientations;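 also: natural log of median RNA to DNA barcode read ratio; higher means stronger binding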
T5 chain: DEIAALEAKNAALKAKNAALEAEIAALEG

4H3666-AA = molecular target: T6, 4H3666-AA; experiment: two-hybrid library CCmax; settings: mean of both orientations;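 also: natural log of median RNA to DNA barcode read ratio; higher means stronger binding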
T6 chain: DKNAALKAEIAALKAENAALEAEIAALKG

4H2742-AA = molecular target: T7, 4H2742-AA; experiment: two-hybrid library CCmax; settings: mean of both orientations
T7 chain: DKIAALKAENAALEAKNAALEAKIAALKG

4H1809-AA = molecular target: T8, 4H1809-AA; experiment: two-hybrid library CCmax; settings: mean of both orientations
T8 chain: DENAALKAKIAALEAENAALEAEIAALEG

4H189-AA = molecular target: T9, 4H189-AA; experiment: two-hybrid library CCmax; settings: mean of both orientations
T9 chain: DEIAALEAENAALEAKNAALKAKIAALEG

4H146-AA = molecular target: T10, 4H146-AA; experiment: two-hybrid library CCmax; settings: mean of both orientations
T10 chain: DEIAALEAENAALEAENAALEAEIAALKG

4H3709-AA = molecular target: T11, 4H3709-AA; experiment: two-hybrid library CCmax; settings: mean of both orientations
T11 chain: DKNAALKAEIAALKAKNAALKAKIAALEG

4H3939-AA = molecular target: T12, 4H3939-AA; experiment: two-hybrid library CCmax; settings: mean of both orientations
T12 chain: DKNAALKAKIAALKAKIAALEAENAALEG

4H2248-AA = molecular target: T13, 4H2248-AA; experiment: two-hybrid library CCmax; settings: mean of both orientations
T13 chain: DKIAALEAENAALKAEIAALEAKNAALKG

4H3920-AA = molecular target: T14, 4H3920-AA; experiment: two-hybrid library CCmax; settings: mean of both orientations
T14 chain: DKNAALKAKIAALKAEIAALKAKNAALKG

4H971-AA = molecular target: T15, 4H971-AA; experiment: two-hybrid library CCmax; settings: mean of both orientations
T15 chain: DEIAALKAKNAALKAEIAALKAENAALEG

4H2713-AA = molecular target: T16, 4H2713-AA; experiment: two-hybrid library CCmax; settings: mean of both orientations
T16 chain: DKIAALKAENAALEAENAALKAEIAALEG

4H3446-AA = molecular target: T17, 4H3446-AA; experiment: two-hybrid library CCmax
T17 chain: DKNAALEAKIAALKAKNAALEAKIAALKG

4H3591-AA = molecular target: T18, 4H3591-AA; experiment: two-hybrid library CCmax; settings: mean of both orientations
T18 chain: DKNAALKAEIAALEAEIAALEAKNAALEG

4H656-AA = molecular target: T19, 4H656-AA; experiment: two-hybrid library CCmax; settings: mean of both orientations
T19 chain: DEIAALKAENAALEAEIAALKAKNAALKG

4H3628-AA = molecular target: T20, 4H3628-AA; experiment: two-hybrid library CCmax; settings: mean of both orientations
T20 chain: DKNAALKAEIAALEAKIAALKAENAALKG

4H1146-AA = molecular target: T21, 4H1146-AA; experiment: two-hybrid library CCmax
T21 chain: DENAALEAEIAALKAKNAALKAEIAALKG

4H675-AA = molecular target: T22, 4H675-AA; experiment: two-hybrid library CCmax; settings: mean of both orientations
T22 chain: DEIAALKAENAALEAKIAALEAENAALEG

4H3066-AA = molecular target: T23, 4H3066-AA; experiment: two-hybrid library CCmax; settings: mean of both orientations
T23 chain: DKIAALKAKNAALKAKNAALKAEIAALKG

4H3102-AA = molecular target: T24, 4H3102-AA; experiment: two-hybrid library CCmax; settings: mean of both orientations
T24 chain: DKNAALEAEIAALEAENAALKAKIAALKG

4H1391-AA = molecular target: T25, 4H1391-AA; experiment: two-hybrid library CCmax
T25 chain: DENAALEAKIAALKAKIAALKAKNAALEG

4H3029-AA = molecular target: T26, 4H3029-AA; experiment: two-hybrid library CCmax; settings: mean of both orientations
T26 chain: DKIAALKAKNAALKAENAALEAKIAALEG

4H3417-AA = molecular target: T27, 4H3417-AA; experiment: two-hybrid library CCmax; settings: mean of both orientations
T27 chain: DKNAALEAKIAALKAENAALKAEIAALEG

4H2283-AA = molecular target: T28, 4H2283-AA; experiment: two-hybrid library CCmax; settings: mean of both orientations
T28 chain: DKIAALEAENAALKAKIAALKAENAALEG

4H478-AA = molecular target: T29, 4H478-AA; experiment: two-hybrid library CCmax; settings: mean of both orientations
T29 chain: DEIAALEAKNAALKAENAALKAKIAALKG

4H391-AA = molecular target: T30, 4H391-AA; experiment: two-hybrid library CCmax; settings: mean of both orientations
T30 chain: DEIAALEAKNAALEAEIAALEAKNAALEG

4H2991-AA = molecular target: T31, 4H2991-AA; experiment: two-hybrid library CCmax; settings: mean of both orientations
T31 chain: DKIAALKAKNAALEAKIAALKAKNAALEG

4H1348-AA = molecular target: T32, 4H1348-AA; experiment: two-hybrid library CCmax; settings: mean of both orientations
T32 chain: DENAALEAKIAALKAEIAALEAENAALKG

P8A = molecular target: T33, P8A; experiment: two-hybrid library CCNG1
T33 chain: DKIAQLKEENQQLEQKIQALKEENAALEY

P6A = molecular target: T34, P6A; experiment: two-hybrid library CCNG1
T34 chain: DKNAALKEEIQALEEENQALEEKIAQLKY

P2A = molecular target: T35, P2A; experiment: two-hybrid library CCNG1
T35 chain: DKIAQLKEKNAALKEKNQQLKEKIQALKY

P9A = molecular target: T36, P9A; experiment: two-hybrid library CCNG1
T36 chain: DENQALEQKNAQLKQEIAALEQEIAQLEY

P7A = molecular target: T37, P7A; experiment: two-hybrid library CCNG1
T37 chain: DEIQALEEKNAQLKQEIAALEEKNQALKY

P3A = molecular target: T38, P3A; experiment: two-hybrid library CCNG1
T38 chain: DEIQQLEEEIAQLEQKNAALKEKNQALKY

P4A = molecular target: T39, P4A; experiment: two-hybrid library CCNG1
T39 chain: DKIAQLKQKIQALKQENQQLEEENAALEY

P5A = molecular target: T40, P5A; experiment: two-hybrid library CCNG1
T40 chain: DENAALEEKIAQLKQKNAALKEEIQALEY

B1: 4H1146-AA (peptide)
chain: DENAALEAEIAALKAKNAALKAEIAALKG
interaction score (4H1854-AA): -0.715 | interaction score (4H3121-AA): -0.198 | interaction score (4H428-AA): -0.861 | interaction score (4H2948-AA): -0.764 | interaction score (4H497-AA): -1.98 | interaction score (4H3666-AA): 2.01 | interaction score (4H2742-AA): -1.39 | interaction score (4H1809-AA): 2.05 | interaction score (4H189-AA): -1.57 | interaction score (4H146-AA): 0.0699 | interaction score (4H3709-AA): -0.436 | interaction score (4H3939-AA): -1.69 | interaction score (4H2248-AA): -0.598 | interaction score (4H3920-AA): -1.58 | interaction score (4H971-AA): -0.562 | interaction score (4H2713-AA): -0.725 | interaction score (4H3446-AA): 0.452 | interaction score (4H3591-AA): -0.991 | interaction score (4H656-AA): 1.71 | interaction score (4H3628-AA): -1.65 | interaction score (4H1146-AA): -0.0838 | interaction score (4H675-AA): 0.0108 | interaction score (4H3066-AA): -1.53 | interaction score (4H3102-AA): 0.627 | interaction score (4H1391-AA): -1.56 | interaction score (4H3029-AA): -1.14 | interaction score (4H3417-AA): 0.618 | interaction score (4H2283-AA): -0.542 | interaction score (4H478-AA): -1.22 | interaction score (4H391-AA): -1.21 | interaction score (4H2991-AA): -0.0174 | interaction score (4H1348-AA): -1.15

B2: P2A (peptide)
chain: DKIAQLKEKNAALKEKNQQLKEKIQALKY
interaction score (P8A): -0.85 | interaction score (P6A): -0.59 | interaction score (P2A): -1.07 | interaction score (P9A): -0.481 | interaction score (P7A): -2.38 | interaction score (P3A): -1.21 | interaction score (P4A): -1.63 | interaction score (P5A): -1.27
